The source of these data is patent publication US20190016800A1.

pKd: −log10 of the molar value.

For the test, the target named is cynomolgus monkey LAG-3 protein (Cat#LA3-C52A0, Acrobiosystems) (cynomolgus monkey). Put plainly: BLI ForteBio Octet RED 96, biotin labeled antibody on streptavidin sensor, antigen 3.125-100 nM, 1:1 fit. Background: Biolayer interferometry detects binding as a change in optical thickness at a sensor tip.

In turn, “LAG3.5 (BMS-986016, developed by Bristol-Myers Squibb) (antibody)” gave a pKd of 8.65.

By pKd is commonly meant −log10 of the Kd, conventionally taken in molar units.
